One substance from article PMC10397344 can be followed below.

For this data set, the system named is MLH1 wt;PMS2 wt. The data set can be described thus: EMSA. To be noted: untreated; ATP; 20 mM HEPES pH 7.5, 40 ug/ml BSA, 1 mM DTT, 100 mM NaCl, 1.5 ul of 10 mM ATP added, 95 ng DNA, on ice 5 min; 4% native PAGE, 0.5xTBE pH 7.5.

GT-DNA-substrate (G/T mismatch) showed a binding signal (% (reference)) of 100.
